Measured values taken from patent US20220412975A1, “CHARACTERIZING MODULATORS OF ADAMTS-7 AND ADAMTS-12” (The Broad Institute, Inc., priority 2019, published 2022).
pIC50: −log10 of the molar value. *: point of attachment. HiLyteFluor‑488 = fluorophore label at the N-terminus; donor fluorophore = not defined here; K(Quencher) = not defined here; K(quencher) = not defined here; Donor = not defined here; Acm = CC(=O)NC*

Experiments:
Type in all cases: biochemical
[1] = target: T1, rPro-hCD ADAMTS-7 (SEQ ID NO: 1) (Homo sapiens, UniProt Q9UKP4, A119V/A123T/A127T/A171V/A193G/A200T/A28V/A36P/A42G/A66V/A78S/A97T/D77A/DEL186-188/DEL228-233/E133D/E190K/E213K/E83Q/G114S/G115N/G117S/G196D/G27H/H100Y/H124S/H234Q/K153R/L143F/L192S/L20I/P189H/P201S/P29L/P33S/P79S/Q99P/R118N/R122Q/R174Q/R195Q/R215Q/R218H/R35L/R75A/R76Q/R87Q/R92L/S170E/S199R/S202G/S214H/T110I/T125V/V182M/V208G/V74A/W225K/Y209S); assay: FRET peptide substrate cleavage by rPro-hCD (SEQ ID NO: 1); details: for kcat, Enzyme SEQ ID NO: 1: rPro-hCD: approx. 100 nM enzyme, 10 μM peptide substrate; for cleavage activity with ADAMTS-7 human catalytic domain constructs (in words): rPro-hCD (SEQ ID NO: 1) and FM2 (SEQ ID NO: 2) constructs; for activity profile of modified S1 substrates (in words): S1 peptide with additional hydrophilic moiety, data not shown
T1 construct: rat ADAMTS-7 signal peptide + prodomain (rat 1-217), fusion partner (N); 2xStrep tag (C); 6xHis tag (C); made in house; host or cells: Expi293 cells
Method: (§1) Purified recombinant ADAMTS-7 (as of SEQ ID NO: 1 or SEQ ID NO: 2) and purified recombinant rADAMTS-7 (rat ADAMTS-7 residues 1-575 with a carboxyl terminal Flag, SEQ ID NO: 3) were used to identify substrates from the TSP1 and COMP candidate peptides. ADAMTS-7 was diluted in reaction buffer (20 mM HEPES pH 8.0, 150 mM NaCl, 5 mM CaCl2, 0.004% Brij, 10 μM ZnCl2) for a concentration of approximately 100 nM and pre-incubated for 2 hr at room temperature prior to reaction start with 10 μM candidate peptide substrates. There were some differences between optimized buffer data and reported 2 mM Zn^2+ buffer data (Liu 2006 FASEB J); for example, the published amount of Zinc in assay buffer caused the purified ADAMTS-7 proteins to precipitate. Candidate FRET substrates based on SEQ ID NO: 4 to 10 were generated through custom synthesis by Anaspec—AnaSpec, EGT (34801 Campus Drive, Fremont, Calif. 94555, USA); as explained by the manufacturer; AnaSpec, EGT Group's pH insensitive HiLyte™ Fluor dyes are a series of fluorescent labeling dyes with fluorescence emissions that span the full visible and near infrared spectrum. HiLyte™ Fluor dyes and AnaSpec's proprietary quenchers QXL™ have been used as fluorophore and quencher pairs for fluorescence resonance energy transfer (FRET) in our Examples in the reaction buffer.
(§2) The TSP substrate sequences indicate the cleavage site (underlined) between glutamate and leucine as determined by mass spectrometry. COMP substrate cleavage products were below the detection limit of the mass spectrometer.

[2] = target: T2, rPro-hCD-FM2 ADAMTS-7 (SEQ ID NO: 2) (Homo sapiens, UniProt Q9UKP4, A119V/A123T/A127T/A171V/A193G/A200T/A28V/A36P/A42G/A66V/A78S/A97T/D77A/DEL186-188/DEL228-233/E133D/E190K/E213K/E83Q/G114S/G115N/G117S/G196D/G27H/H100Y/H124S/H234Q/K153R/L143F/L192S/L20I/P189H/P201S/P29L/P33S/P79S/Q235K/Q99P/R118N/R122Q/R174Q/R195Q/R215Q/R218H/R35L/R75A/R76Q/R87Q/R92L/S170E/S199R/S202G/S214H/T110I/T125V/V182M/V208G/V74A/W225K/Y209S); assay: FRET peptide substrate cleavage by rPro-hCD-FM2 (SEQ ID NO: 2); details: approx. 100 nM enzyme, 10 μM peptide substrate
T2 construct: rat ADAMTS-7 signal peptide + prodomain (rat 1-217, Q216K), fusion partner (N); 2xStrep tag (C); 6xHis tag (C); made in house; host or cells: Expi293 cells
Method: as §1, §2

rADAMTS7 (1-575) = target: T3, rADAMTS7 (1-575) (Rattus norvegicus, UniProt Q1EHB3); assay: FRET peptide substrate cleavage by rADAMTS7 (1-575) (SEQ ID NO: 3); details: approx. 100 nM enzyme, 10 μM peptide substrate
T3 construct: Flag (C); made in house; host or cells: Expi293 cells
T3 sequence (Q1EHB3 with tags, fused parts or gaps): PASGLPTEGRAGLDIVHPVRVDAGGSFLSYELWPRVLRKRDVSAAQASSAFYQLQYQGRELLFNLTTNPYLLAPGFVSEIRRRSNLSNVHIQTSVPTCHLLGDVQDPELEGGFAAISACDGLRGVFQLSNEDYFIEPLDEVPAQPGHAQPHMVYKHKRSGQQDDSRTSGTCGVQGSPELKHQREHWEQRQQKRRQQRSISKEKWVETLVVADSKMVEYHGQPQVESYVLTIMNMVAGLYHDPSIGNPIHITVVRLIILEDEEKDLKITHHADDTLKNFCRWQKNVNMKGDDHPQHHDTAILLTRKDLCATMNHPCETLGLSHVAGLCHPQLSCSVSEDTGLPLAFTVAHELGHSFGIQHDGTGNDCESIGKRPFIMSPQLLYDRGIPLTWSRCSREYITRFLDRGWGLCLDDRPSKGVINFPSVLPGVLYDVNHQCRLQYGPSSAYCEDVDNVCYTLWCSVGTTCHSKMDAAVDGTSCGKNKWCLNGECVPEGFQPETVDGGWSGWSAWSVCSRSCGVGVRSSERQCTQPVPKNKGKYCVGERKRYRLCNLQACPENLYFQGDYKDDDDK
Method: as §1, §2

ADAMTS-7 = target: T4, ADAMTS-7 (Homo sapiens, UniProt Q9UKP4, A119V/A123T/A127T/A171V/A193G/A200T/A28V/A36P/A42G/A66V/A78S/A97T/D77A/DEL186-188/DEL228-233/E133D/E190K/E213K/E83Q/G114S/G115N/G117S/G196D/G27H/H100Y/H124S/H234Q/K153R/L143F/L192S/L20I/P189H/P201S/P29L/P33S/P79S/Q99P/R118N/R122Q/R174Q/R195Q/R215Q/R218H/R35L/R75A/R76Q/R87Q/R92L/S170E/S199R/S202G/S214H/T110I/T125V/V182M/V208G/V74A/W225K/Y209S); assay: ADAMTS-7 enzymatic activity FRET assay, testing of inhibitory compounds
T4 construct: rat ADAMTS-7 signal peptide + prodomain (rat 1-217), fusion partner (N); 2xStrep tag (C); 6xHis tag (C); made in house; host or cells: Expi293 cells
Method: Purified recombinant ADAMTS-7 (as of SEQ ID NO: 1 or SEQ ID NO: 2) was diluted in reaction buffer (20 mM HEPES pH 8.0, 150 mM NaCl, 5 mM CaCl2, 0.004% Brij, 10 μM ZnCl2) for a concentration of approximately 20 nM. 25 μl of the solution were transferred into each well of a 384-well white microtiter plate (Greiner Bio-One 781075) and 1 μl test compound solution (modulator/inhibitor dissolved in DMSO, at the corresponding concentration) or pure DMSO as a control were added per well. […] Amino acids […] are derived from Thrombospondin-1 sequence (275-289). An additional carboxyl glutamic acid was added after the QXL520 quencher to increase substrate solubility. The microtiter plate was incubated for 120 min at the temperature of 32° C. The increase of fluorescence intensity was measured in appropriate fluorescence plate reader (e.g. TECAN Ultra) using excitation wavelength of 485 nm and emission wavelength of 520 nm. IC50 values were calculated from percentage of inhibition of ADAMTS-7 activity as a function of test compound concentration. IC50 values derived using functional ADAMTS-7 according to SEQ ID NO: 1 or SEQ ID NO: 2, respectively, were not distinguishable, both laying within the experimental error.
The assays to determine the IC50 for ADAMTS inhibition were performed as described earlier herein.

T1 sequence (Q9UKP4 with tags, fused parts or gaps with the stated changes): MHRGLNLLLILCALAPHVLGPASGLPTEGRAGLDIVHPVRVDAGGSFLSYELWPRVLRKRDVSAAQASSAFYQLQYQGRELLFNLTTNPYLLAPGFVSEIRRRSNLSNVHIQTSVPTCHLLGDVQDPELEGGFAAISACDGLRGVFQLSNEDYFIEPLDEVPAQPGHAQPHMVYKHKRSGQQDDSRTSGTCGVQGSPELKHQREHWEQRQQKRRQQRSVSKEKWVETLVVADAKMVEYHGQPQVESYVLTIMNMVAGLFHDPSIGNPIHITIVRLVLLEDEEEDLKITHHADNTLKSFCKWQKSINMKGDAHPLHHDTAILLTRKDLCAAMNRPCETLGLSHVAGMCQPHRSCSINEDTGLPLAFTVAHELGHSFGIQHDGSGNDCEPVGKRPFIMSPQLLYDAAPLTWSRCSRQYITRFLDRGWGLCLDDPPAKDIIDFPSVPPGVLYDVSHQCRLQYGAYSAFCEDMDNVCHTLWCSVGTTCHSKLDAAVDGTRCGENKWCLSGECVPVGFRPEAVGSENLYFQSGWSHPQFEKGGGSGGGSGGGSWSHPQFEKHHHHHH
T2 sequence (Q9UKP4 with tags, fused parts or gaps with the stated changes): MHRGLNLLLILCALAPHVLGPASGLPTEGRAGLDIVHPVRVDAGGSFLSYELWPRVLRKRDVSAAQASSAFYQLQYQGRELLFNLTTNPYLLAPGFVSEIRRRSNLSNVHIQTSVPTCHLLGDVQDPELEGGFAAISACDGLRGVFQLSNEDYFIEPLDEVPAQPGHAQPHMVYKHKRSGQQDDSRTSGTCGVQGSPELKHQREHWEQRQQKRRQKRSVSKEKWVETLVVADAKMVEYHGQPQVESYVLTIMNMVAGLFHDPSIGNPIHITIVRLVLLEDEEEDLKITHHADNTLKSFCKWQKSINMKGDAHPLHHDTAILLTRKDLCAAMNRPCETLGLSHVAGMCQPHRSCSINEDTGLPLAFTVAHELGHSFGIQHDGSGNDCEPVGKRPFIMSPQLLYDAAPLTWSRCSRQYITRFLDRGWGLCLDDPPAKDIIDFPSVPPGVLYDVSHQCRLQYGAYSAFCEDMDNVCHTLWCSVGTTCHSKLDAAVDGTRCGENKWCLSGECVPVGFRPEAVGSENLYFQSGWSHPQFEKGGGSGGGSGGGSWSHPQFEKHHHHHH

| pIC50 (ADAMTS-7) | activity profile of modified S1 substrates (in words) [1] | Compound | kcat, Enzyme SEQ ID NO: 1: rPro-hCD [1] [s⁻¹] | cleavage activity with ADAMTS-7 human catalytic domain constructs (in words) [1] | kcat, Enzyme SEQ ID NO: 2: rPro-hCD-FM2 [2] [s⁻¹] | kcat, Enzyme SEQ ID NO: 3: rADAMTS7 (1-575) (rADAMTS7 (1-575)) [s⁻¹] |
| --- | --- | --- | --- | --- | --- | --- |
| – | – | (HiLyteFluor-488)-EENKELANELRRPPL-K (QXL520)-NH2 ({HiLyteFluor‑488}-EENKELANELRRPPLK(QXL520)-NH2) [TSP1-4, FRET candidate peptide, TSP1 amino acids 303-317] | 3.33e-05 | No significant activity | 3.5e-05 | 4.33e-05 |
| 6.26 | – | O=C1NC(=O)[C@](CNC(=O)c2cc(-c3cnn(CC4CC4)c3)no2)(C2CC2)N1 [Example 12.3, N-{[(4R)-4-cyclopropyl-2,5-dioxoimidazolidin-4-yl]methyl}-3-[1-(cyclopropylmethyl)-1H-pyrazol-4-yl]-1,2-oxazole-5-carboxamide] | – | – | – | – |
| – | – | (HiLyteFluor-488)-SSMVLELRGLRT-K(QXL520)-NH2 ({HiLyteFluor‑488}-SSMVLELRGLRTK(QXL520)-NH2) [TSP1-5, FRET peptide substrate, TSP1 amino acids 278-289] | 3.33e-05 | Activity was observed | 3.5e-05 | 4.17e-05 |
| – | – | (Donor) SPGFRCEACPPGYS (K-Quencher) (Donor-SPGFRC(Acm)EAC(Acm)PPGYS-{K(Quencher)}; reading uncertain; also: printed as (Donor) SPGFRCEACPPGYS (K-Quencher)) [COMP2, FRET candidate peptide, COMP amino acids 146-159, Acm modified cysteines] | 6.33e-06 | No activity | 6.5e-06 | 8.33e-06 |
| – | – | (HiLyteFluor-488)-KVTEENKELANELRR-K (QXL520)-NH2 ({HiLyteFluor‑488}-KVTEENKELANELRRK(QXL520)-NH2) [TSP1-3, FRET candidate peptide, TSP1 amino acids 300-314] | 2e-05 | No significant activity | 2e-05 | 2.33e-05 |
| – | not significantly affected | (HiLyteFluor-488)-DELSSMVLELRGLRT-K(QXL520)-E-NH2 ({HiLyteFluor‑488}-DELSSMVLELRGLRTK(QXL520)E-NH2) [SEQ ID NO: 11, S1 peptide substrate with additional carboxyl glutamic acid after the quencher] | – | – | – | – |
| 6.32 | – | CC(C)(C)C1(CNC(=O)c2cnc(-c3ccccc3)o2)NC(=O)NC1=O (racemic) [Example 12.4, rac-{[4-tert-butyl-2,5-dioxoimidazolidin-4-yl]methyl}-2-phenyl-1,3-oxazole-5-carboxamide] | – | – | – | – |
| – | – | (Donor) GMQQSVRTGLPS (K-Quencher) ({donor fluorophore}-GMQQSVRTGLPS-{K(quencher)}; reading uncertain; also: donor fluorophore and quencher not given here, printed as (Donor) GMQQSVRTGLPS (K-Quencher)) [COMP1, FRET candidate peptide, COMP amino acids 73-84] | 1.22e-05 | No activity | 1.27e-05 | 8.17e-06 |
| – | not significantly affected | (HiLyteFluor-488)-DELSSMVLELRGLRT-K(QXL520)-K-NH2 ({HiLyteFluor‑488}-DELSSMVLELRGLRTK(QXL520)K-NH2) [SEQ ID NO: 12, S1 peptide substrate with additional lysine after the quencher] | – | – | – | – |
| – | – | (HiLyteFluor-488)-DELSSMVLELRGLRT-K(QXL520)-NH2 ({HiLyteFluor‑488}-DELSSMVLELRGLRTK(QXL520)-NH2) [TSP1-1, FRET peptide substrate for ADAMTS-7/12, TSP1 amino acids 275-289] | 0.00035 | greatest specificity | 0.0004 | 0.000167 |
| – | not significantly affected | (HiLyteFluor-488)-DELSSMVLELRGLRT-K(QXL520)-OH ({HiLyteFluor‑488}-DELSSMVLELRGLRTK(QXL520)-OH) [SEQ ID NO: 13, S1 peptide substrate ending in -OH] | – | – | – | – |
| – | – | (HiLyteFluor-488)-SSMVLELRGLRTIVT-K(QXL520)-NH2 ({HiLyteFluor‑488}-SSMVLELRGLRTIVTK(QXL520)-NH2) [TSP1-2, FRET peptide substrate, TSP1 amino acids 278-292] | 5.33e-05 | cleaved | 4.83e-05 | 0.000128 |
